Measured values taken from patent US20120288511A1 (INDIANA UNIVERSITY RESEARCH AND TECHNOLOGY, published 2012).
Read-outs that look alike come from different tables or passages of the source. No end group written: not given here. *: point of attachment. Palmitoyl = CCCCCCCCCCCCCCCC(=O)*

Key:
Experiment in all cases: cell-based or functional assay
glucagon receptor [1] = target: T1, glucagon receptor (human, UniProt P47871 26-477)
GLP-1 receptor [2] = target: T2, GLP-1 receptor (human, UniProt P43220 24-463)
glucagon receptor [3] = target: T1, glucagon receptor; remark: listed apart in the source
GLP-1 receptor [4] = target: T2, GLP-1 receptor; remark: listed apart in the source
GLP-1 receptor [5] = target: T2, GLP-1 receptor; remark: listed apart in the source
glucagon receptor [6] = target: T1, glucagon receptor; remark: listed apart in the source
GLP-1 receptor [7] = target: T2, GLP-1 receptor; remark: listed apart in the source

T1 sequence (P47871 26-477): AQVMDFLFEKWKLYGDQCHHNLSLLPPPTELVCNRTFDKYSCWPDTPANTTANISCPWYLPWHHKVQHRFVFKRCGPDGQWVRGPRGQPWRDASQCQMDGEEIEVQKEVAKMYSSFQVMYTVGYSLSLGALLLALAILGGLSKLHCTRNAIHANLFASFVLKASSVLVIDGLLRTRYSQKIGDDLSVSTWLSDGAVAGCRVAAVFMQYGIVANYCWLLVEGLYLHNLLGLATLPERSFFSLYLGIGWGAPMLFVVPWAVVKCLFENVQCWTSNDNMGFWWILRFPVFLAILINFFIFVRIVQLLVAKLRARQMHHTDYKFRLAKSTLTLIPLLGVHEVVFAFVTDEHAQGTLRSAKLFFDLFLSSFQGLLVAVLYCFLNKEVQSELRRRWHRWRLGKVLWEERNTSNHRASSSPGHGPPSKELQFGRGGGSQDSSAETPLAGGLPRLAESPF

Binder: HSQGTFTSDKSKYLDEEAVRLFIEWLMNT-NH2 (also: Lys-γGlu-C16 (K(B)) at unstated position) [Glucagon Analog 37]
- EC50 (cAMP luciferase reporter) (glucagon receptor [1]): 0.119 nM
- EC50 (cAMP luciferase reporter) (GLP-1 receptor [2]): 0.011 nM

Binder: HAQGTFTSDKSKYLDERAAQDFVC(PEG 40 kDa)WLLDT-NH2 (also: other non-coded residues as, not given here) [Glucagon Analog 81]
- % Relative Activity vs native glucagon (glucagon receptor [3]): 51.4%
- EC50 (cAMP luciferase reporter) (glucagon receptor [3]): 37000 nM
- % Relative Activity vs native GLP-1 (GLP-1 receptor [4]): 300%
- EC50 (cAMP luciferase reporter) (GLP-1 receptor [4]): 0.012 nM

Binder: HSQGTFTSDYSKYLDSKRAQEFVQWLMNT-NH2 [Peptide 1]
- EC50 (cAMP luciferase reporter) (GLP-1 receptor [5]): 0.13 nM

Binder: HSQGTFTSDKSKYLDEQAAKEFICWLLDTE-NH2 (not fully specified; also: further groups not given here) [Glucagon Analog 83]
- % Relative Activity vs native glucagon (glucagon receptor [3]): 61%
- EC50 (cAMP luciferase reporter) (glucagon receptor [3]): 28000 nM
- % Relative Activity vs native GLP-1 (GLP-1 receptor [4]): 288%
- EC50 (cAMP luciferase reporter) (GLP-1 receptor [4]): 0.024 nM

Binder: HSQKTFTEDYSKYLDSRRAQDFVQWLMNT (not fully specified; also: further groups not given here) [Peptide 16]
- EC50 (cAMP luciferase reporter) (GLP-1 receptor [5]): 121 nM

Binder: HSQGTFTSDKSKYLDEQAAKEFIC(PEG 40 kDa)WLLDTGG-NH2 (not fully specified; also: further groups not given here) [Glucagon Analog 78]
- % Relative Activity vs native glucagon (glucagon receptor [3]): 44%
- EC50 (cAMP luciferase reporter) (glucagon receptor [3]): 140000 nM
- % Relative Activity vs native GLP-1 (GLP-1 receptor [4]): 196%
- EC50 (cAMP luciferase reporter) (GLP-1 receptor [4]): 0.026 nM

Binder: HSQGTFTSDYSKYLDEEAVRLFICWLMNT-NH2 (also: DPP-IV-resistant residue at position 1 or 2) [Glucagon Analog 34]
- EC50 (cAMP luciferase reporter) (glucagon receptor [1]): 0.404 nM
- EC50 (cAMP luciferase reporter) (GLP-1 receptor [2]): 0.018 nM

Binder: HSQGTFTSDKSKYLDEQAAKEFICWLLDT (also: DPP-IV-resistant residue at position 1 or 2, not given here) [Glucagon Analog 53]
- % Relative Activity vs native glucagon (glucagon receptor [6]): 411%
- EC50 (cAMP luciferase reporter) (glucagon receptor [6]): 0.009 nM
- % Relative Activity vs native GLP-1 (GLP-1 receptor [7]): 708%
- EC50 (cAMP luciferase reporter) (GLP-1 receptor [7]): 0.012 nM

Binder: HSQGTFTSDYSKYLDEEAVRLFICWLMNT-NH2 (also: DPP-IV-resistant residue at position 1 or 2) [Glucagon Analog 32]
- EC50 (cAMP luciferase reporter) (glucagon receptor [1]): 0.22 nM
- EC50 (cAMP luciferase reporter) (GLP-1 receptor [2]): 0.007 nM

Binder: HSQGTFTSDK(Palmitoyl)SKYLDEEAVRLFIEWLMNT-NH2 [Glucagon Analog 39]
- EC50 (cAMP luciferase reporter) (glucagon receptor [1]): 2.54 nM
- EC50 (cAMP luciferase reporter) (GLP-1 receptor [2]): 0.033 nM

Binder: HSQGTFTSDKSKYLDEQAVRLFIC(PEG 40 kDa)WLLDT-NH2 (also: acylated amino acid at position 10, acyl group not given here) [Glucagon Analog 85]
- EC50 (cAMP luciferase reporter) (glucagon receptor [1]): 0.107 nM
- percent in parentheses (not explained) (glucagon receptor [1]): 16%
- EC50 (cAMP luciferase reporter) (GLP-1 receptor [2]): 0.013 nM
- percent in parentheses (not explained) (GLP-1 receptor [2]): 284%

Binder: HSQGTFTSDYSKYLDEQAVRLFICWLLDGGPSSGAPPPS-NH2 (not fully specified; also: further groups not given here) [Glucagon Analog 84]
- EC50 (cAMP luciferase reporter) (glucagon receptor [1]): 0.132 nM
- percent in parentheses (not explained) (glucagon receptor [1]): 14.4%
- EC50 (cAMP luciferase reporter) (GLP-1 receptor [2]): 0.006 nM
- percent in parentheses (not explained) (GLP-1 receptor [2]): 600%

Binder: HSQGTFTSDKSKYLDEQAAKEFIC(PEG 40 kDa)WLLDT-NH2 (not fully specified; also: further groups not given here) [Glucagon Analog 79]
- % Relative Activity vs native glucagon (glucagon receptor [3]): 26%
- EC50 (cAMP luciferase reporter) (glucagon receptor [3]): 240000 nM
- % Relative Activity vs native GLP-1 (GLP-1 receptor [4]): 41%
- EC50 (cAMP luciferase reporter) (GLP-1 receptor [4]): 0.125 nM

Binder: HSQGTFTSDYSKYLDEQAVRLFICWLLDT-NH2 (not fully specified; also: further groups not given here) [Glucagon Analog 87]
- EC50 (cAMP luciferase reporter) (glucagon receptor [1]): 0.021 nM
- percent in parentheses (not explained) (glucagon receptor [1]): 71%
- EC50 (cAMP luciferase reporter) (GLP-1 receptor [2]): 0.013 nM
- percent in parentheses (not explained) (GLP-1 receptor [2]): 284%

B1: Peptide 15 (peptide)
peptide: KHSQETFTSDYSKYLDSRRAQDFVQWLMNT
modifications: not fully specified; amidated unless FIG. 1 shows OH; lactam, D-residues, Orn/Dab only as drawn in FIG. 1
- EC50 (cAMP luciferase reporter) (GLP-1 receptor [5]): 73.4 nM
